Measurements taken from patent US7408028B2, “Peptides, antibodies thereto, and their use in treatment of central nervous system, damage” (Sinapore General Hospital Pte Ltd., priority 2002, dated 2008).

Assays:
Nogo-66 [1] = target: T1, Nogo-66 (Homo sapiens, UniProt Q9NQC3); assay: Phage display panning (Ph.D-7 library), clones identified by ELISA and sequencing; type: binding; design: GST; made in house; conditions: target Nogo-66, 3-4 rounds of affinity selection
T1 sequence (Q9NQC3 1055-1120): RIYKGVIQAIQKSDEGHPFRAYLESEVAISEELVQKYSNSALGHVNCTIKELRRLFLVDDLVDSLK
Experimental: (§1) Purification of TN-R, MAG and Nogo from adult mouse brains was performed by immumoaffinity chromatography as previously described (Pesheva, P et al, 1989). Generation and purification of the recombinant domains of TN-R, MAG, Nogo as fusion proteins with GST were performed as previously described (Xiao Z C et al, 1996). All these proteins were used as phage binding targets for rapid screening, using the Ph. D-7TM phage display peptide library kit (New England Biolabs, Ltd) according to the manufacturer's instructions.
(§2) Briefly, a library of phages, displaying different peptide sequences, was exposed to a plate coated with the target protein. Unbound phage was washed away and specifically bound phage was eluted by lowering pH. The eluted pool of phage was amplified, and the process was repeated 3-4 times.
(§3) The peptide-encoding sequences of the specific phage clones were determined by automated sequencing. The sequences of peptides which bound specifically to the targeted proteins were obtained.
(§4) Exemplary 7-mer peptide-endcoding sequences are shown below. “n” refers to the number of isolated phages displaying a peptide having the sequence shown (though there was of course some variability in the encoding nucleic acid sequences, owing to the degeneracy of the genetic code). “SIN” is an abbreviation for “SEQ ID NO.” and refers to the peptide sequence. The SEQ ID NOS of the nucleic acid sequences from the top to the bottom of the table are as follows: SEQ ID NO: 28, SEQ ID NO: 29, SEQ ID NO: 30, SEQ ID NO: 31, SEQ ID NO: 32, SEQ ID NO: 29, SEQ ID NO: 33. SEQ ID NO: 28, SEQ ID NO: 34, SEQ ID NO: 35.

TNR-EGFL [2] = target: T2, TNR-EGFL (Homo sapiens, UniProt Q92752); assay: as above; type: binding; conditions: target TNR-EGFL, 3-4 rounds of affinity selection
T2 construct: GST; made in house
T2 sequence (Q92752 125-329): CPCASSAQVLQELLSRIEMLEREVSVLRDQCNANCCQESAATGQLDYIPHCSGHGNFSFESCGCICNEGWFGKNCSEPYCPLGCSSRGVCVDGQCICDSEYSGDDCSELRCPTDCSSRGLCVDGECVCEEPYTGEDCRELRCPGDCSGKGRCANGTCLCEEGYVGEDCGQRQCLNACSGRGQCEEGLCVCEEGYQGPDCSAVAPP
Experimental: as §1, §2, §3, §4

MAG [3] = target: T3, MAG (Mus musculus, UniProt P20917); assay: as above; type: binding; conditions: target MAG, 3-4 rounds of affinity selection
T3 construct: from tissue; host or cells: adult mouse brain
T3 sequence (P20917 20-627): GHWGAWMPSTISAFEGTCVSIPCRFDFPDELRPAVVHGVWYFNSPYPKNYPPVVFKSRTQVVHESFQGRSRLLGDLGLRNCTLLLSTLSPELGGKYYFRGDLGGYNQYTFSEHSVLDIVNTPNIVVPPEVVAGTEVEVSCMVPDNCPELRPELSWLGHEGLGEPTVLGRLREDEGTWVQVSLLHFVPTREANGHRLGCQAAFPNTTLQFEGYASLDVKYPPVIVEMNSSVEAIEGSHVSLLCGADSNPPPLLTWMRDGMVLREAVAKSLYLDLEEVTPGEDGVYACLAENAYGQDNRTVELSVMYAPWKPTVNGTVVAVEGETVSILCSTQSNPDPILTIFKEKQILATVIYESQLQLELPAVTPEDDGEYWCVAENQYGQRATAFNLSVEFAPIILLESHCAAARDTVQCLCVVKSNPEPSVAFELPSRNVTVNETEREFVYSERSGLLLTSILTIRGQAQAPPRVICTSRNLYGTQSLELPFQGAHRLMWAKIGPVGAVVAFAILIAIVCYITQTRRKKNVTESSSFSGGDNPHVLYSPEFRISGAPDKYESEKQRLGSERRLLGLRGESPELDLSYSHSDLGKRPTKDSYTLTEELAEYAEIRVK
Experimental: as §1, §2, §3, §4

TNR-EGFL [4] = assay: Phage blocking of the inhibitory effect on NG108 cell adhesion; type: cell-based; conditions: peptide displayed on phage, 24 hours
Experimental: (§5) NG108 cells were plated on poly-DL-ornithine-treated tissue culture petri dish as single-cell suspensions. Specific phages that display the Nogo66-, MAG- and TNR-binding peptides identified above were added to the cell culture. Cells were maintained for 24 hours before fixation and staining with toluidine blue. Cell adhesion was determined as previously described.

Nogo-66 [5] = target: T1, Nogo-66; assay: as above; type: cell-based; design: made in house; conditions: peptide displayed on phage, 24 hours
Experimental: as §5

MAG [6] = target: T3, MAG; assay: as above; type: cell-based; conditions: peptide displayed on phage, 24 hours
Experimental: as §5

NG108 cells [7] = assay: Neuronal cell adhesion to protein spots on nitrocellulose-coated dishes; type: cell-based, mouse neuroblastoma—rat glioma hybrid cells; conditions: spots 5 μM GST-Nogo66, 100 μM Nogo66, Nogol-50, Nogol-25; 12 hours; p<0.05
Experimental: Tissue culture petri dishes (Becton Dickinson) with a diameter of 3.5 cm were coated with methanol-solubilized nitrocellulose according to Lagenaur and Lemmon (1987) and air-dried under a sterile hood. Then the petri dishes were incubated with PBS containing 5 μg/ml poly-DL-ornithine for 2 hours at 37° C. Subsequently, the dishes were washed three times with PBS and dried under a sterile hood.
Protein spots (1.5 μl of 5 μM GST, 5 μM GST-Nogo66, 100 μM Nogo66, 100 μM Nogol-50 or 100 μM Nogol-25) were applied to the nitrocellulose-coated surfaces of the petri dishes and incubated for 2 hours at 37° C. in a humidified atmosphere. Subsequently, the spots were washed three times with PBS. The dishes were then flooded with PBS containing 2% heat-inactivated fatty acid-free BSA (Sigma) and incubated overnight to block residual non-specific protein binding sites.
Then, the dishes were washed with PBS and NG108 cells were plated in 2 ml of Dulbecco's modified Eagle's medium containing 10% fetal bovine serum at a density of 2.5×10^5 cells/ml and incubated at 37° C. in a humidified atmosphere. After 12 hours, the dishes were gently washed three times with PBS and the cells fixed by flooding with PBS containing 2.5% glutaraldehyde. After fixation, cultures were stained with 0.5% toluidine blue (Sigma) in 2.5% sodium carbonate. […]
Cells adhering to the various spots were photographed and counted. […]

NG108 cells [8] = assay: Repulsion assay on coated Nogo domain substrates; type: cell-based, mouse neuroblastoma—rat glioma hybrid cells; conditions: GST as control
Experimental: NG108 cells (mouse neuroblastoma—rat glioma hybrid cells, commercially available from the American Tissue Type Culture Collection, Manassas, Va., USA, under accession number ATCC HB-12317) were plated on coated substrates using Nogol-25, Nogol-50, Nogol-66 and GST-Nogo-66 as well as GST as control. Generation and purification of the recombinant domains of Nogo, either alone or as fusion proteins with GST, were performed as previously described (Xiao Z C et al, 1996).

NG108 cells [9] = assay: Neurite outgrowth assay on coated Nogo domain substrates; type: cell-based, mouse neuroblastoma—rat glioma hybrid cells; conditions: coated substrate, GST as control
Experimental: NG108 cells were plated on coated substrates using Nogol-25, Nogol-50, Nogol-66, and GST-Nogo-66 as well as GST as control.

[10] = tested on: postnatal day 1 hippocampal neurons; conditions: coated protein; cited from earlier work

Molecule: GSLPHSL (From a phage library that displays random 7-mers)
- n, number of isolated phages displaying the peptide (Nogo-66 [1]): GSLPHSL (n = 8)
- n, number of isolated phages displaying the peptide (Nogo-66 [1]; listed as SEQ ID NO. 2): 8
- n, number of isolated phages displaying the peptide (TNR-EGFL [2]): GSLPHSL (n = 1)

Molecule: HHMPHDK (From a phage library that displays random 7-mers)
- n, number of isolated phages displaying the peptide (TNR-EGFL [2]): HHMPHDK (n = 1)
- n, number of isolated phages displaying the peptide (TNR-EGFL [2]; listed as SEQ ID NO. 5): 1

Molecule: HSIPDNI (From a phage library that displays random 7-mers)
- n, number of isolated phages displaying the peptide (TNR-EGFL [2]): HSIPDNI (n = 3)
- n, number of isolated phages displaying the peptide (TNR-EGFL [2]; listed as SEQ ID NO. 4): 3

Molecule: QLPLMPR (From a phage library that displays random 7-mers)
- n, number of isolated phages displaying the peptide (MAG [3]): QLPLMPR (n = 5)
- n, number of isolated phages displaying the peptide (MAG [3]; listed as SEQ ID NO. 7): 5

Molecule: TQLFPPQ (From a phage library that displays random 7-mers)
- Block of the inhibitory effect of TNR-EGFL on NG108 cell binding (TNR-EGFL [4]): able to block
- Block of the inhibitory effect of TNR-EGFL on NG108 cell binding (TNR-EGFL [4]; listed as SEQ ID NO. 3): block
- n, number of isolated phages displaying the peptide (TNR-EGFL [2]): TQLFPPQ (n = 18)
- n, number of isolated phages displaying the peptide (TNR-EGFL [2]; listed as SEQ ID NO. 3): 18
- n, number of isolated phages displaying the peptide (MAG [3]): TQLFPPQ (n = 7)

Molecule: YLTQPQS (From a phage library that displays random 7-mers)
- Block of the inhibitory effect of Nogo-66 on NG108 cell binding (Nogo-66 [5]): able to block
- Block of the inhibitory effect of Nogo-66 on NG108 cell binding (Nogo-66 [5]; listed as SEQ ID NO. 1): block
- Block of the inhibitory effect of MAG on NG108 cell binding (MAG [6]): able to block
- Block of the inhibitory effect of MAG on NG108 cell binding (MAG [6]; listed as SEQ ID NO. 1): block
- n, number of isolated phages displaying the peptide (Nogo-66 [1]): YLTQPQS (n = 43)
- n, number of isolated phages displaying the peptide (Nogo-66 [1]; listed as SEQ ID NO. 1): 43
- n, number of isolated phages displaying the peptide (MAG [3]): YLTQPQS (n = 19)
- n, number of isolated phages displaying the peptide (MAG [3]; listed as SEQ ID NO. 1): 19

Molecule: YTTPPSP (From a phage library that displays random 7-mers)
- n, number of isolated phages displaying the peptide (TNR-EGFL [2]): YTTPPSP (n = 1)
- n, number of isolated phages displaying the peptide (TNR-EGFL [2]; listed as SEQ ID NO. 6): 1

B1: Nogol-66: recombinant domain of Nogo (66-residue extracellular domain) used as coated substrate (protein)
chain: T1 sequence (Q9NQC3 1055-1120)
modifications: not fully specified
notes: recombinant domain of Nogo (66-residue extracellular domain) used as coated substrate
- NG108 cell counts adhering to protein spot compared to GST (NG108 cells [7]): significantly reduced
- NG108 cells repelled from coated substrate (NG108 cells [8]): repelled significantly
- Neurite outgrowth of NG108 cells inhibited (NG108 cells [9]): inhibited significantly

B2: GST-Nogo-66: recombinant Nogo-66 domain as fusion protein with GST (protein)
chain: T1 sequence (Q9NQC3 1055-1120)
modifications: also: fused to GST
notes: recombinant Nogo-66 domain as fusion protein with GST
- NG108 cell counts adhering to protein spot compared to GST (NG108 cells [7]): significantly reduced
- NG108 cells repelled from coated substrate (NG108 cells [8]): repelled significantly
- Neurite outgrowth of NG108 cells inhibited (NG108 cells [9]): inhibited significantly

B3: rMAG: coated recombinant MAG (protein, UniProt P20916 20-626, looked up)
Myelin-associated glycoprotein: GHWGAWMPSSISAFEGTCVSIPCRFDFPDELRPAVVHGVWYFNSPYPKNYPPVVFKSRTQVVHESFQGRSRLLGDLGLRNCTLLLSNVSPELGGKYYFRGDLGGYNQYTFSEHSVLDIVNTPNIVVPPEVVAGTEVEVSCMVPDNCPELRPELSWLGHEGLGEPAVLGRLREDEGTWVQVSLLHFVPTREANGHRLGCQASFPNTTLQFEGYASMDVKYPPVIVEMNSSVEAIEGSHVSLLCGADSNPPPLLTWMRDGTVLREAVAESLLLELEEVTPAEDGVYACLAENAYGQDNRTVGLSVMYAPWKPTVNGTMVAVEGETVSILCSTQSNPDPILTIFKEKQILSTVIYESELQLELPAVSPEDDGEYWCVAENQYGQRATAFNLSVEFAPVLLLESHCAAARDTVQCLCVVKSNPEPSVAFELPSRNVTVNESEREFVYSERSGLVLTSILTLRGQAQAPPRVICTARNLYGAKSLELPFQGAHRLMWAKIGPVGAVVAFAILIAIVCYITQTRRKKNVTESPSFSAGDNPPVLFSSDFRISGAPEKYESERRLGSERRLLGLRGEPPELDLSYSHSDLGKRPTKDSYTLTEELAEYAEIRVK
- Axonal growth cones collapsed [10]: 60%

B4: denatured rMAG: denatured recombinant MAG (protein, UniProt P20916 20-626, looked up)
Myelin-associated glycoprotein: B3 Myelin-associated glycoprotein
modifications: denatured recombinant
notes: denatured recombinant MAG
- Axonal growth cones collapsed [10]: not observed
